Source: the DeepSol protein solubility set

Test: soluble on expression in E. coli; label from the status in PepcDB or PDB records

With “PQQSTWQMATNTPLECRLVHPIPNYGDAEFSSRAGKKINLDFELKMRRPMGDTRNVSLVSMPPVWRPGEGADRITNLQFFKQFDGYIGGQTAWSLLSELEKGRYPTFSYQDWQSRDQRIEVALSSVLFQQPYNEFSDCISKLLPYS” as the sequence, how does the “soluble on expression in E. coli” value read?
Its value is “not soluble”.

Which “soluble on expression in E. coli” value does the source give for “PQYIGGISNTFKYKNWEFSCFVTMQAGNKIRMNPSFDPAFADLNVFSKEYYNRWLNPGDERKTNIPVIPSQDLIRNIGKENIEKAYNTYNYSQNRVADGSFVRMKNISLGYRLPQRFLSHLKIKQMNVKVNVTNPFLIYSDRKLNGQDPEFYRSGGVSLPTPKQYTMTLNVEF” here?
Its value is “not soluble”.

With “PRERVSRVHASSGTTGKPTVVGYTARDLDNWANLVARSIRAAGGKPGDIVHVSYGYGLFTGGLGAHYGAERLGCTVVPMSGGQTEKQVQLINDFRPDIIMVTPSYYCNILEEQRRQGMDPRQSSLRIGIFGAEPWTGQMRADIEAEGGIDAVDIYGLSEVMGPGVASECVETKDGPVV” as the sequence, how does the “soluble on expression in E. coli” value read?
Its value is “not soluble”.

For “PRVSLFFFSADTDDHAWDKHALVLECAELADSLGLDAIWVPERHFDPFGAPYPSPGLLLAAIAARTSRIALRSGSVVLPLRDPLLVAEEWGVLDSLSRGRMGISLASGWHADDFVLNPEGYERRKDVLEERLADLHTLWNGASITRKGPGGRPVEVRTYPRPERTPEVWLTSSRNPDTWRTAGRLNLHVLTALLEQTIDEITERVGLYHQALTEAGHPTDGRQVTCMLHTHLASDPASVEQRVRGPLIRYLSAHMDLFSKYAAGGGAGIDPDEVTEADRQALLEHGLRRYMGTSGLFGSAESCLPKVERLGAAGITELGCLVDFGLPREQVLESVEELGRLRVALRETAGAPK”, which “soluble on expression in E. coli” value is on record?
Its value is “soluble”.

With “PSLALYVDASGKIKYINEYFLEICRFKSADEATGRSPSELLDTSSRRTLAEKVMETGEGIYNVEKSIKFKALDKPLFTVLSAVPVKDETGTIAGSLMVITDMT” as the sequence, how does the “soluble on expression in E. coli” value read?
Its value is “not soluble”.

With “PSPREQLMESIRKGKELKQSRPPLKKASDRQLGPPRMCEPSPREQLMESIRKGKELKQSRPPLKKASDRQLGPPRMCEPSPREQLMESIRKGKELKQA” as the sequence, how does the “soluble on expression in E. coli” value read?
The value was “soluble”.

For “PSPSTEQSAKKVRKKAENAHNTPLLVLYGSNMGTAEGTARDLADIAMSKGFAPQVATLDSHAGNLPREGAVLIVTASYNGHPPDNAKQFVDWLDQASADEVKGVRYSVFGCGDKNWATTYQKVPAFIDETLAAKGAENIADRGEADASDDFEGTYEEWREHMWSDVAAYFNLDIENSEDNKSTLSLQFVDS”, which “soluble on expression in E. coli” value is on record?
The value was “soluble”.

For “PSSSQSEEKAPELPKPKKNRCFMCRKKVGLTGFDCRCGNLFCGLHRYSDKHNCPYDYKAEA”, which “soluble on expression in E. coli” value is on record?
Its value is “soluble”.

With “PSTVPIMHQVSATMRSITLSWPQPEQPNGIILDYEIRYYEKEHNEFNSSMARSQTNTARIDGLRPGMVYVVQVRARTVAGYGKFSGKMCFQTLTD” as the sequence, how does the “soluble on expression in E. coli” value read?
Its value is “soluble”.

Which “soluble on expression in E. coli” value does the source give for “PTPPNWNMTSSGLEVKSPGDGILTPGENMELVAAVCSACHSLHMVTQQGLSRQRWDESLDWMIEEQGMEDLSGDDREAILEYLSTYYGG” here?
The value was “not soluble”.

For “PVLTQTSEQAPSSAPRDVQARMLSSTTILVQWKEPEEPNGQIQGYRVYYTMDPTQHVNNWMKHNVADSQITTIGNLVPQKTYSVKVLAFTSIGDGPLSSDIQVITQTG”, which “soluble on expression in E. coli” value is on record?
Its value is “soluble”.

For “PYSSGVDENYYQDLRNRFNHGELYSADSIPSLGGKIFKTAGGREVYGGGGIIPDIFIPLDTAGLNSYMMKVEDSDLIPRYAFLYSDANRVSLSRFKTVEELGAYLDRTYLIFDFASFAQRYGIPMRTSLINEARNRIKKYINAYIAMNFFDLQGYYQLLLHDDPFILQAISLIKEGKTFPLIYDQKGTQSTDPAA”, which “soluble on expression in E. coli” value is on record?
The value was “not soluble”.

With “QAILYVGHGSRVKKAQQEAAAFLEGCKAHISVPVQEISFLELQEPTIETGFEACVKQGATHIAVVPLLLLTAAHAKHDIPEEIVRVASRYPSVRISYGKPIGIDEEVVKAVYHRMKDIGVPYENARVVLIGRGSSDPDVKRDVTGIANLLQEMVPVKEVIPCFLTACGPNYKEVFSELEKDDGITTFIVPYLLFTGMLMNEIEREVQKLKAHNPNVYLSSYIGFHPHVKNAFLNRVRETAANSEGQFDFDGGSYASAAH” as the sequence, how does the “soluble on expression in E. coli” value read?
Its value is “not soluble”.

Which “soluble on expression in E. coli” value does the source give for “QDFAELQGKWYTIVIAADNLEKIEEGGPLRFYFRHIDCYKNCSEMEITFYVITNNQCSKTTVIGYLKGNGTYETQFEGNNIFQPLYITSDKIFFTNKNMDRAGQETNMIVVAGKGNALTPEENEILVQFAHEKKIPVENILNILATDTCPE” here?
Its value is “soluble”.

With “QESVEDSLATVKVVLIPVGQEIVIPFKVDTILKYLKDHFSHLLGIPHSVLQIRYSGKILKNNETLVQHGVKPQEIVQVEIFSTNPDLYPVRRIDGLTDVSQIITV” as the sequence, how does the “soluble on expression in E. coli” value read?
The value was “soluble”.

Which “soluble on expression in E. coli” value does the source give for “QETGISMIGERTNSNGSKAFREAMLSGDWEKCVDIAKQQTRDGAHMLDLCVDYVGRDGTADMATLAALLATSSTLPIMIDSTEPEVIRTGLEHLGGRSIVNSVNFEDGDGPESRYQRIMKLVKQHGAAVVALTIDEEGQARTAEHKVRIAKRLIDDITGSYGLDIKDIVVDCLTFPISTGQEETRRDGIETIEAIRELKKLYPEIHTTLGLSNISFGLNPAARQVLNSVFLNECIEAGLDSAIAHSSKILPMNRIDDRQREVALDMVYDRRTEDYDPLQEFMQLFEGVSAAD” here?
The value was “not soluble”.

For “QGWEKALYTLVTLYVTTRVIDAIHTRHMKLTAMIVTKKADEIKEAIYGKMVRGITTVPAKGAFTNEQKEMMIIVITRYELYDLEKIVKEVDPKAFTNIVQTTGIFGFFRKD”, which “soluble on expression in E. coli” value is on record?
Its value is “not soluble”.

With “QHPAFMTEMPTDGKYQDTIEALQSMKYDKEDDEDKQMNAEHHKEEGNKHFKFKKYRWATDCYSNGIKENSPDRKLNAVLYFNRAAAQKHLGNLRSAIKDCSMGRKFDPTHLKGVIRGAECLLELEYAKDALNWIESSKKIFAFTKETSDTPDLTDDEKKFIDQLETLRVKSVELSLKEERDKRKSRAEERKETESKKQLLDALKERNLNLCPRVPFDRPELMDMARLTVSLPLMHSHECVKFDDDLNLVWPILLQYPEAGQTDVLTETNELTTVGELLKEVLNSPAQWDPEHKFNFENVRFFVSDEYDEYLMEVYEWNDFKSVLSMPGYQIKQGLPVIMIMTKEKAASSLEALAEDENRYVAK” as the sequence, how does the “soluble on expression in E. coli” value read?
Its value is “not soluble”.

For “QIKDHLIIVGFGFSGKTISKAAKAAGIPYLIIEMNPEIVQHEKAKGEKIQYGDATFGAVLEHAGIKNARVLVTGIADSSSTGKIVEKAKELNPNICVIVKVHDLQEMKRLNSMGADEIIPEEYETSVEIFVRLLEKYLVPRENIEK”, which “soluble on expression in E. coli” value is on record?
Its value is “not soluble”.

For “QIQLVQSGPELKKPGETVKISCKASGYTFTDYSMYWVKQAPGKGLKRMGWINTETGEPTYADDFKGRFALSLDTSASTAYLHISNLKNEDTATYFCARGLDSWGQGTSVTVSSAKTTPPSVYPLAPGCGDTTGSSVTLGCLVKGYFPESVTVTWNSGSLSSSVHTFPALLQSGLYTMSSSVTVPSSTWPSQTVTCSVAHPASSTTVDKKLEPS”, which “soluble on expression in E. coli” value is on record?
Its value is “soluble”.

Which “soluble on expression in E. coli” value does the source give for “QKVPAPVDGERIIMELSEADVECTIKIEAEDGYANDIWADLNGNGKYDSGERLDSGEFRDVEFRQTKAIVYGKMAKFLFRGSSAGD” here?
The value was “not soluble”.

With “QLDGLDVYVAGKADVNFLFDRYISTKTELRSTTYSNYLYTWNHFIRDTFGKKKVRDVKYSDVLFFYTDLINNQGLQINTLETINTVLRPTFQLAVRDDIIRKNPVDGAYCEVKKRNGGARKTRRALTVDQQRKFMEYVAKNPFFYHWYPFFVFLLGTGCRIGEAIGIRWDDIDLENRIIDINHSLTYYQRADDSYKCEFRVSLPKTEAGNRRIPMMQQVYDVLQEEYERQKQEGFCVENVDGMTNFVFTNRFGMPHNPAAVNRAIKR” as the sequence, how does the “soluble on expression in E. coli” value read?
Its value is “not soluble”.

Which “soluble on expression in E. coli” value does the source give for “QLKNNAAIQIDRVDNTEITETVSFDAEPTYVDDPEAPAGDETVVEEGAPGTKEVTRTVTTVNGQEESSTVINEVEITAAKPATISRGTKT” here?
Its value is “not soluble”.

For “QLVLVKRSTPPVAVIWSAPDCPYCRKLEKTLEQENASVYVVPVGVAENGFRQAARVYCADDPSQAWRKVMQGSEINGRAKTSCQYPRDMLNDIGFFLGMGRMATPIVVFADGSTVIGWNDQNAWMLLRKKISEQIFFND”, which “soluble on expression in E. coli” value is on record?
Its value is “not soluble”.

With “QMCSSLMIIAFDFDGTLVDSYSCIEEAFYRALKRTYPWLPGKRYIAKLLTKLELQFERPKFGKHGRKIKPPMKIFQGKFARAWFEERAKLTKPLDGAREVLERLKEDGHIVISFSAEDFIPGIKEYRLKISGLYDLFDDVIIFGRDITICEAFSIVREKYGYDTFVWVDDKPWRFIGRGDENTEYVWMYFPYTARFVSDDILAQIPHLHVIYDLWSLLDVVKNLK” as the sequence, how does the “soluble on expression in E. coli” value read?
Its value is “not soluble”.

For “QNSWDSLQPDREQVIASLNVVELLKRHHYNKPPLNDERSAKIYDSYLKMLDPARMYFTAGDIAEFDRWRNRFDDFLKSGDLDPGFVIYKRHLDRLKGRLDYALAMLDKGVDKIDFSVDESLLIDREKAPWAKDTAELDDLWRKKVKDEVLRLKITGKDDKAIQEQLTKRYKNQLSRLKQTRSEDIFQAYINAFAQSYDPHTQYLSPDNAENFDINMSLSLEGIGAVLQSDNDYVKVVRLVPAGPAAKSKQIATSDKIIGVAQGKGEMVDVVGWRLDEVVKLIRGPKGSQVRLEVIPASNAPNDQTSKIVAITREAVKLEDQAAKKSIIKVDHEGRSYKLGVIDLPAFYLDFKAYRAGDPNYKSTTRDVKKLVAELQKDKVDGIVLDLRNNGGGSLQEATELTGLFIDQGPTVLVRNSDGRVDVLNDDEGKAFYTGPLAVLVNRLSASASEIFAGAMQDYHRALILGGQTFGKGTVQTIQPLNHGELKLTLAKFYRVSGQSTQHQGVIPDISYPSIVDDKEIGESALPDSMPWDTIRPVVKDEANPFKPFLAQLKAQHDARTENNADFVYARERLALAQELMKEKTVSLNEAKRRAQQTSIENRQLAMENALRKSKGQEPLKELKREDENALPEEDDKTKPQDDAYLTESGHILLDYLNLNSAVAK”, which “soluble on expression in E. coli” value is on record?
Its value is “not soluble”.

With “QPLGGESICSARAPAKYSITFTGKWSQTAFPKQYPLFRPPAQWSSLLGAAHSSDYSMWRKNQYVSNGLRDFAERGEAWALMKEIEAAGEALQSVHEVFSAPAVPSGTGQTSAELEVQRRHSLVSFVVRIVPSPDWFVGVDSLDLCDGDRWREQAALDLYPYDAGTDSGFTFSSPNFATIPQDTVTEITSSSPSHPANSFYYPRLKALPPIARVTLLRLRQSPR” as the sequence, how does the “soluble on expression in E. coli” value read?
The value was “soluble”.

For “QQMQAESGFVQHVGFKCDNCGIEPIQGVRWHCQDCPPEMSLDFCDSCSDCLHETDIHKEDHQLEPIYRS”, which “soluble on expression in E. coli” value is on record?
The value was “soluble”.

For “QSWYGGFKDTAELVRGDSNECIELTDDQLSYLAVLWAARCAVGFQEMKLTRLAKETRLSHEVVQKITQIFISQGIVSVFEEYGPSGQKDVAWVQLTEHGCGLAKNLERVSSHS”, which “soluble on expression in E. coli” value is on record?
The value was “not soluble”.

Which “soluble on expression in E. coli” value does the source give for “QTFGHGQARAFVLSPVMPVWDQGAFAGPLIEHFIRSGHQVTVFDSLSLPAVPDECFSGFAERWADALEPWGVPDVLVGVALGGALAQALAGISFLSVTPALLLLSSPSKADALLDARLGRMADLAEQGHVRQAKRLLDELVLPEGQAHAEQDRFDTETDALLAPQGRRLVRGFRLLDGVNVSERLCDYEGRVLSVFGGKSQLVGADHVLRTKGSNQHS” here?
The value was “not soluble”.

Which “soluble on expression in E. coli” value does the source give for “QTGVQTNTPFGSGEDSIRCRQNISLFTSYAKTGNYKDAYDFWEKAYEECPASTKNIYIYGVKISEWRLQNEQDPAKRQQIIDKILKLYDDRVKYFGEDPKYGTDYIMASKISDYMQYMGDKTDYDKVYEWIKPTIDQHGENATPRALFYYAYSSLNKAIRNEAWHETYIKDYTFASQAMEKQLEVADEKGKEFIQPLKTQIDELFAQSGLADCNTLVKMYGDKLEENKTDTTFLKNMLGMFHASDCETHPLYFQANK” here?
Its value is “not soluble”.
